For experiment [1], the target named is T1, recombinant His-tagged human IL-10Ra (Creative Biomart) (human, UniProt Q13651 22-235).
T1 construct: His tag; also called IL-10 receptor alpha
T1 sequence (looked up): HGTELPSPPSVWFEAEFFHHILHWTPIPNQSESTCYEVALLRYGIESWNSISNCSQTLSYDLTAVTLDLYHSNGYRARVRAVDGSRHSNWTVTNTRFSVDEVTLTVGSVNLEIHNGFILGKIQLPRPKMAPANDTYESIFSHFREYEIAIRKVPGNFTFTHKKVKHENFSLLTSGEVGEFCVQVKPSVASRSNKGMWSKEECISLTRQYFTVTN
Description: ELISA on coated His-tagged human IL-10Ra, serial dilution from 30 µg/mL. As for the experimental part:
To test the binding of the IL-10/anti-DSG1 ANDbodies to IL-10 receptor alpha (IL-10Ra) by ELISA, recombinant His-tagged human IL-10Ra (Creative Biomart) was coated on NUNC-IMMUNO™ MAXISORP™ ELISA plates at 1 μg/mL concentration overnight. The next day, coated antigen was removed and the wells were blocked with 1% IgG-free BSA followed by incubation with 11 three-fold serially diluted anti-IL-10/anti-DSG1 ANDbodies (as provided above) with a starting concentration of 30 μg/mL. Bound antibody was detected with peroxidase-conjugated anti-human IgG antibodies with TMB and acid stop reagents.
(In general: ELISA stands for enzyme-linked immunosorbent assay.)

Experiment [2] has as its target T2, recombinant His-tagged murine RAGE protein (ab276858 from Abcam) (mouse, UniProt Q62151 23-340, limits assumed).
T2 construct: His tag; also called murine RAGE antigen
Description: BLI, ANDbody on anti-human IgG Fc biosensors, murine RAGE at 150 nM then murine Notch2 NRR at 150 nM. As for the experimental part:
To test simultaneous dual antigen binding of the Notch2/RAGE ANDbodies by BLI, PRO051, PRO052 and PRO053, along with monovalent parental antibody controls were immobilized on anti-human IgG Fc biosensors and dipped into the recombinant His-tagged murine RAGE protein at 150 nM, followed by a second association step into wells containing recombinant murine Notch2 NRR at 150 nM to measure dual antigen binding. The dissociation rate was then measured by dipping the biosensors into buffer.
(In BLI a coated tip is dipped into the sample, and binding shifts an interference pattern.)

Experiment [3] has as its target T3, DSG1 stably expressed on HEK-BLUE IL-10 cells (HEKBLUE IL-10/DSG1) (human, UniProt Q02413 50-1049).
T3 sequence (looked up): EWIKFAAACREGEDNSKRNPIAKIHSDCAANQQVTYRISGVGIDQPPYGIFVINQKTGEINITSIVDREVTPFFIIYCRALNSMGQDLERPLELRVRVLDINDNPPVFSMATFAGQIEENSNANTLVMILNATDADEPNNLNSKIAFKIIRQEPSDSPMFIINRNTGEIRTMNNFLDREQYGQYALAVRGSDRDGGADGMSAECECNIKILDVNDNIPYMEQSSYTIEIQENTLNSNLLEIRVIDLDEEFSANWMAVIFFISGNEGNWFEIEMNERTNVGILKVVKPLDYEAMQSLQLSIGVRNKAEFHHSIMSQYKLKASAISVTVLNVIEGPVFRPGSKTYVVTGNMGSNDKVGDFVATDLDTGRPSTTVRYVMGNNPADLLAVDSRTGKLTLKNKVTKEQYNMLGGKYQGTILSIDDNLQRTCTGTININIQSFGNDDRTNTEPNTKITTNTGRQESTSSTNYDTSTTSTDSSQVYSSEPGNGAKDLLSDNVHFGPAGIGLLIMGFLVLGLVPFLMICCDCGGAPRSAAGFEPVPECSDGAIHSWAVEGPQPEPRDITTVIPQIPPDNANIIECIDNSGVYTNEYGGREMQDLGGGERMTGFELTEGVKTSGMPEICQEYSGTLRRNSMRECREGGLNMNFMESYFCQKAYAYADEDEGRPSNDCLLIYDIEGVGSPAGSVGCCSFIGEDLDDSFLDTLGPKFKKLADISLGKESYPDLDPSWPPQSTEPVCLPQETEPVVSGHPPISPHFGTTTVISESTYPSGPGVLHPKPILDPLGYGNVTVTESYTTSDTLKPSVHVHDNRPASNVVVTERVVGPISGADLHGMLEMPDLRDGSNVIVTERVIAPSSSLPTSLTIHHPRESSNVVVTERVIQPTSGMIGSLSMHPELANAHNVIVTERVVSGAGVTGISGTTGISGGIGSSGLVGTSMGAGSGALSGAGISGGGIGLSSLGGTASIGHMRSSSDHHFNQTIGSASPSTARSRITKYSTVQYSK
As to the kind of experiment: cell-based or functional assay.

The results in this text go back to patent publication US20250353906A1 (FLAGSHIP PIONEERING INNOVATIONS VII, published 2025).

T2 sequence (Q62151 23-340 limits assumed): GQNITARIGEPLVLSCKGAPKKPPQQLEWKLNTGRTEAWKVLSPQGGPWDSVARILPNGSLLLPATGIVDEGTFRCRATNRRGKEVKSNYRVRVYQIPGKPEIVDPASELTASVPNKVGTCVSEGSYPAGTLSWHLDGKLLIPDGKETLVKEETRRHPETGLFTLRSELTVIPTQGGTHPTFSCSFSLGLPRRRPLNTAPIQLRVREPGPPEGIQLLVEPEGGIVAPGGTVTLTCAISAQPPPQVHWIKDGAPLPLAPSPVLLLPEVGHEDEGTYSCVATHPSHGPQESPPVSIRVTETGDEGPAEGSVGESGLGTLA

B1: IL-10 Fc (Creative Biomart IL10-326H) (Fc fusion, human, UniProt P22301 19-178, looked up)
chain: SPGQGTQSENSCTHFPGNLPNMLRDLRDAFSRVKTFFQMKDQLDNLLLKESLLEDFKGYLGCQALSEMIQFYLEEVMPQAENQDPDIKAHVNSLGENLKTLRLRLRRCHRFLPCENKSKAVEQVKNAFNKLQEKGIYKAMSEFDIFINYIEAYMTMKIRN
notes: Bought reagent; also called positive control IL-10 Fc; hIL-10 Fc fusion; not shown: human Fc domain
B1: in experiment [1], the binding result is “binds”.

B2: PRO052 (bispecific antibody)
heavy 1: not shown
light 1: DIQMTQSPSSLSASVGDRVTITCRASQSNRRFLAWYQQKPGKAPKLLIYGASSRASGVPSRFSGSGSGTDFTLTISSLQPEDFATYYCQQYYISPLTFGQGTKVEIKRTVAAPSVFIFPPSDEQLKSGTASVVCLLNNFYPREAKVQWKVDNALQSGNSQESVTEQDSKDSTYSLSSTLTLSKADYEKHKVYACEVTHQGLSSPVTKSFNRGEC
heavy 2: not shown
light 2: DIQMTQSPSSLSASVGDRVTITCRASQDVGIYVNWFQQKPGKAPRRLIYRATNLADGVPSRFSGSRSGTDFTLTISSLQPEDFATYYCLEFDEHPLTFGGGTKVEIKRTVAAPSVFIFPPSDEQLKSGTASVVCLLNNFYPREAKVQWKVDNALQSGNSQESVTEQDSKDSTYSLSSTLTLSKADYEKHKVYACEVTHQGLSSPVTKSFNRGEC
notes: Made by controlled Fab arm exchange from PRO035 (K409R) and PRO002 (F405L); also called Notch2/RAGE ANDbody PRO052; copies: 1 + 1 + 1 + 1
Consider B2, for which, in experiment [2], the binding result was “binds”.

B3: PRO053 (bispecific antibody)
heavy 1: not shown
light 1: DIQMTQSPSSLSASVGDRVTITCRASQSVRSFLAWYQQKPGKAPKLLIYRASIRASGVPSRFSGSGSGTDFTLTISSLQPEDFATYYCQQYYISPWTFGQGTKVEIKRTVAAPSVFIFPPSDEQLKSGTASVVCLLNNFYPREAKVQWKVDNALQSGNSQESVTEQDSKDSTYSLSSTLTLSKADYEKHKVYACEVTHQGLSSPVTKSFNRGEC
heavy 2: not shown
light 2: DIQMTQSPSSLSASVGDRVTITCRASQDVGIYVNWFQQKPGKAPRRLIYRATNLADGVPSRFSGSRSGTDFTLTISSLQPEDFATYYCLEFDEHPLTFGGGTKVEIKRTVAAPSVFIFPPSDEQLKSGTASVVCLLNNFYPREAKVQWKVDNALQSGNSQESVTEQDSKDSTYSLSSTLTLSKADYEKHKVYACEVTHQGLSSPVTKSFNRGEC
notes: Made by controlled Fab arm exchange from PRO036 (K409R) and PRO002 (F405L); also called Notch2/RAGE ANDbody PRO053; copies: 1 + 1 + 1 + 1
For the molecule B3, in experiment [2], the binding result was “binds”.

B4: PRO051 (bispecific antibody)
heavy 1: not shown
light 1: not shown
heavy 2: not shown
light 2: DIQMTQSPSSLSASVGDRVTITCRASQDVGIYVNWFQQKPGKAPRRLIYRATNLADGVPSRFSGSRSGTDFTLTISSLQPEDFATYYCLEFDEHPLTFGGGTKVEIKRTVAAPSVFIFPPSDEQLKSGTASVVCLLNNFYPREAKVQWKVDNALQSGNSQESVTEQDSKDSTYSLSSTLTLSKADYEKHKVYACEVTHQGLSSPVTKSFNRGEC
notes: Made by controlled Fab arm exchange from PRO034 (K409R) and PRO002 (F405L); Signal peptides left out as for the parents; also called Notch2/RAGE ANDbody PRO051; RAGE-targeting ANDbody; copies: 1 + 1 + 1 + 1
On to B4, for which the binding result in experiment [2] was “binds”.

B5: PRO058 (other)
heavy: EVQLVESGGGLVQPGRSLRLSCAASGFTFDDYAMHWVRQAPGKGLEWVSGISWNSGSIDYADSVKGRFTISRDNAKNSLYLQMNSLRVEDTALYYCAKDGSRVFGVGGGFDFWGQGTMVTVSSASTKGPSVFPLAPSSKSTSGGTAALGCLVKDYFPEPVTVSWNSGALTSGVHTFPAVLQSSGLYSLSSVVTVPSSSLGTQTYICNVNHKPSNTKVDKKVEPKSCDKTHTCPPCPAPEAAGGPSVFLFPPKPKDTLMISRTPEVTCVVVDVSHEDPEVKFNWYVDGVEVHNAKTKPREEQYNSTYRVVSVLTVLHQDWLNGKEYKCKVSNKALGAPIEKTISKAKGQPREPQVYTLPPSRDELTKNQVKLTCLVKGFYPSDIAVEWESNGQPENNYKTTPPVLDSDGSFFLYSSLTVDKSRWQQGNVFSCSVMHEALHNHYTQKSLSLSPG
light: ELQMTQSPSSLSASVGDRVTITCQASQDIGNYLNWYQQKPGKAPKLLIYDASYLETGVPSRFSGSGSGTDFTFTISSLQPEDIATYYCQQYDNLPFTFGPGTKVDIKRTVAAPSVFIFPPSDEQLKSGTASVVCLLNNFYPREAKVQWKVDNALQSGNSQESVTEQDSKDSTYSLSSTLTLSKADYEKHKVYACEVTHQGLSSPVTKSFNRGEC
chain: SPGQGTQSENSCTHFPGNLPNMLRDLRDAFSRVKTFFQMKDQLDNLLLKESLLEDFKGYLGCQALSEMIQFYLEEVMPQAENQDPDIKAHVNSLGENLKTLRLRLRRCHRFLPCENGGGSGGKSKAVEQVKNAFNKLQEKGIYKAMSEFDIFINYIEAYMTMKIRNGGGGSGGGGSDKTHTCPPCPAPEAAGGPSVFLFPPKPKDTLMISRTPEVTCVVVDVSHEDPEVKFNWYVDGVEVHNAKTKPREEQYNSTYRVVSVLTVLHQDWLNGKEYKCKVSNKALGAPIEKTISKAKGQPREPQVYTLPPSRDELTKNQVSLTCLVSGFYPSDIAVEWESNGQPENNYKTTPPVLDSDGSFKLYSKLTVDKSRWQQGNVFSCSVMHEALHNRFTQKSLSLSPG
Consider B5, for which, in experiment [3], the “increase in potency of IL-10 signaling (SEAP, HEK-BLUE IL-10 cells) when DSG1 was expressed on the target cells” value was approximately 15 fold.
